Experimental data taken from US20130157289A1 (Genentech, published 2013).
Substitutions are numbered along the chain they refer to. Numbers in names are those of the source.

What was measured:
human STEAP-1 [1] = target: T1, human STEAP-1 (human, UniProt Q9UHE8 1-339); experiment: FACS of display-normalised Fab phage, aligned histograms; no cell name on the panel, traces as in FIG. 6A (LB50)
T1 construct: Six-transmembrane cell surface antigen; Exogenous full length STEAP-1 stably expressed in 293 cells (LB50, LB48, LB53) and PC3 cells (PS5.4); endogenous in LNCaP / LNCaP-BR cells; also called Six Transmembrane Epithelial Antigen of the Prostate 1
T1 sequence (Q9UHE8 other isoform, or with tags, fused parts or gaps): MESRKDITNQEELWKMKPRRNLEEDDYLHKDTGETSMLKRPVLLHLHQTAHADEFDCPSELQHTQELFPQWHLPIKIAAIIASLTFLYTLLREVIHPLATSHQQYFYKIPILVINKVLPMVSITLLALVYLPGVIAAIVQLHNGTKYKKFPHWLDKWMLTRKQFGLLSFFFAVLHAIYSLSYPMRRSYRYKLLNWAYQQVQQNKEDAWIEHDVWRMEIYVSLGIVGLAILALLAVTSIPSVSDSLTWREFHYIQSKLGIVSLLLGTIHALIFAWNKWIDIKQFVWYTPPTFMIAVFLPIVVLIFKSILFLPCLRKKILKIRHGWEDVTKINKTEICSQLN
Protocol: Phage expressing Fab variants were first assessed for their Fab display level using an phage ELISA used to detect a […] fused to the light chain of the Fab. MaxiSorp microtiter plates were coated with anti-gD 1766 at 10 μg/ml in PBS over night and then blocked with Casein Blocker. Phage from culture supernatants were serially diluted in PBST containing 0.5% BSA in a tissue culture microtiter plate and transferred to the coated wells for 1 h to capture the Fab displaying phage. The plate was washed with PBST and HRP conjugated anti-M13 (Amersham Pharmacia Biotech) was added (1:5000 in PBST containing 0.5% BSA) for 40 min. The plate was washed with PBST and developed by adding Tetramethylbenzidine substrate (Kirkegaard and Perry Laboratories, Gaithersburg, Md.). The absorbance at 405 nm was used as an estimate of the Fab display level on the surface of the phage. Phage preparations were normalized for display by dilution. Low displaying phage (e.g. the chimera) were used neat for FACS analysis.
For FACS analysis of phage binding, cells were removed from the plate using 2 mM EDTA, collected in a 15 mL conical bottom tube and pelleted by centrifugation. Cells (5×10⁵ cells per sample) were re-suspended in 100 μL of phage (normalized by display level) in FACS buffer (1% FBS, PBS with 2 mM EDTA) and incubated for 1-2 hours on ice. Samples were washed twice with FACS buffer by centrifugation. Anti-M13 5G7 control antibody (Genentech, Inc. South San Francisco, Calif.) was added at 2 μg/mL and incubated on ice for at least 45 minutes. Samples were washed twice with FACS buffer by centrifugation. A 1:200 dilution of anti-mouse PE (R-phycoerythrin goat anti-mouse IgG Fcy Fragment, Jackson Immunoresearch) was added and incubated on ice for 30 minutes. Samples were again washed twice with FACS buffer by centrifugation and analyzed by FACS.

human STEAP-1 [2] = target: T1, human STEAP-1; experiment: Scatchard analysis on LNCaP-BR cells, average value
From the text: (§1) IgG was purified with Protein G affinity chromatography.

[3] = target: T2, cynomolgus monkey STEAP-1 (cynomolgus monkey, UniProt Q9UHE8 1-339 (human entry)); experiment: Scatchard analysis on 293 cells transiently expressing cynomolgus STEAP-1 (293-Transient Cyno Steap1); side note: Same Affinity for Human & Cyno
T2 construct: the expressing cell line is not described; also called cyno STEAP-1
T2 sequence (Q9UHE8 other isoform, or with tags, fused parts or gaps): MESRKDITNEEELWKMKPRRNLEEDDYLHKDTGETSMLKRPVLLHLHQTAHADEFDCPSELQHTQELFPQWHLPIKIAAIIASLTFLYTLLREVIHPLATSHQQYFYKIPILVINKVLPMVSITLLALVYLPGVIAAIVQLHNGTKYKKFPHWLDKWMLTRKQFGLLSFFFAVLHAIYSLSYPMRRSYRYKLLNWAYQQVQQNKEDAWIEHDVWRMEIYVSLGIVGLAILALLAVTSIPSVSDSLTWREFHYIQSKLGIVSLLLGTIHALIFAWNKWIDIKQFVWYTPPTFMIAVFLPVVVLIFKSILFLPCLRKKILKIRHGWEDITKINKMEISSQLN

human STEAP-1 [4] = target: T1, human STEAP-1; experiment: Scatchard analysis on 293.LB50 cells, Assay 738; displacement curve and Scatchard plot
From the text: as §1

human STEAP-1 [5] = target: T1, human STEAP-1; experiment: Scatchard analysis on LNCaP.BR cells, Assay 739; displacement curve (Bound/Total against Total, nM) and Scatchard plot (Bound/Free against Bound, pM)
From the text: as §1

human STEAP-1 [6] = target: T1, human STEAP-1; experiment: Scatchard analysis on 293.LB50 cells, Assay 737; displacement curve and Scatchard plot
From the text: as §1

human STEAP-1 [7] = target: T1, human STEAP-1; experiment: Scatchard analysis on 293-LB50 cells, average value
From the text: as §1

human STEAP-1 [8] = target: T1, human STEAP-1; experiment: Scatchard analysis on LNCaP.BR cells, Assay 740; displacement curve and Scatchard plot
From the text: as §1

human STEAP-1 [9] = target: T1, human STEAP-1; experiment: Scatchard analysis on 293 cells transiently expressing human STEAP-1 (293-Transient Human Steap1)
From the text: as §1

human STEAP-1 [10] = target: T1, human STEAP-1; experiment: Scatchard analysis on 293 STEAP-1 NT LB50 cells
From the text: as §1

B1: 37 Phage (Fab, V domains shown)
VH: EVQLVESGGGLVQPGGSLRLSCAASGYSITSDYAWNWIRQAPGKGLEWVGYISNSGSTSYNPSLKSRFTISRDNSKNTLYLQMNSLRAEDTAVYYCARERNYDYDDYYYAMDYWGQGTLVTVSS
VL: DIQMTQSPSSLSASVGDRVTITCKSSQSLLYRSNQKNYLAWYQQKPGKAPKLLIYWASTRESGVPSRFSGSGSGTDFTLTISSLQPEDFATYYCQQYYNYPRTFGQGTKVEIKR
notes: monovalent Fab-g3 phage display; also called V37I variant of the 120 graft
binding result (human STEAP-1 [1]): binds

B2: Original Thio 120V24 (antibody, V domains shown)
VH: B1 VH with A24V, I38V
VL: B1 VL
notes: cysteine engineered form of humanized 120.v24; also called Orig Thio PUR 12813; Thio Mab
Kd (human STEAP-1 [2]): 1.4 nM
Kd [3]: 1.1 nM
Kd (human STEAP-1 [4]): 2 nM
Kd (human STEAP-1 [5]): 1.1 nM
Kd (human STEAP-1 [6]): 1.7 nM
Kd (human STEAP-1 [7]): 1.9 nM
Kd (human STEAP-1 [8]): 1.7 nM
Kd (human STEAP-1 [9]): 1.4 nM

B3: 48 Phage (Fab, V domains shown)
VH: B1 VH with I38V, V49M
VL: B1 VL
notes: monovalent Fab-g3 phage display; also called V48M variant of the 120 graft
binding result (human STEAP-1 [1]): binds

B4: 67 Phage (Fab, V domains shown)
VH: B1 VH with I38V, F68I
VL: B1 VL
notes: monovalent Fab-g3 phage display; also called F67I variant of the 120 graft
binding result (human STEAP-1 [1]): binds

B5: humanized anti-STEAP-1 120v.24 (antibody, name in Kabat numbering, V domains shown)
VH: B1 VH with A24V, I38V
VL: B1 VL
notes: constant regions not specified; also called humanized 120v.24 (clone 67); humanized version 24
fold improvement in Kd over the 120 chimera and murine M2-120.545 (human STEAP-1 [10]): 2 fold
